Reference: US20040253247A1

Assays:
Experiment in all cases: SA08b binding assay: competition with biotinylated SA08b for immobilized albumin
[1] = molecular target: mouse albumin (mouse), P07724
[2] = molecular target: T1, rabbit albumin (rabbit), P49065
T1 chain: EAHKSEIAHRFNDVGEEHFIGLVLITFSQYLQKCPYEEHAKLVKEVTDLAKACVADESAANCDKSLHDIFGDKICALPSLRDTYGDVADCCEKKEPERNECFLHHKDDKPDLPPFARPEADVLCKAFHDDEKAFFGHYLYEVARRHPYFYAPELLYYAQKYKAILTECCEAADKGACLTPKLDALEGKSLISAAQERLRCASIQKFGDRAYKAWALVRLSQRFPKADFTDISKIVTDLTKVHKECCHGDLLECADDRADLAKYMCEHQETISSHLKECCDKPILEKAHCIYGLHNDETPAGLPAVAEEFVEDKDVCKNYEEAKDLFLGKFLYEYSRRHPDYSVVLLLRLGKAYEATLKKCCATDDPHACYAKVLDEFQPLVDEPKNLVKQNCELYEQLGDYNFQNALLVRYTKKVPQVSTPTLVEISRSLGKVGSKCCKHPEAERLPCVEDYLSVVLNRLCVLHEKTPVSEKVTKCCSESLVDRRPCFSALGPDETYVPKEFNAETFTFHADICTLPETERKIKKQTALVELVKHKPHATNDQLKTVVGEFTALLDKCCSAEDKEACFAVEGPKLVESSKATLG

[3] = molecular target: T2, rat albumin (rat), P02770
T2 chain: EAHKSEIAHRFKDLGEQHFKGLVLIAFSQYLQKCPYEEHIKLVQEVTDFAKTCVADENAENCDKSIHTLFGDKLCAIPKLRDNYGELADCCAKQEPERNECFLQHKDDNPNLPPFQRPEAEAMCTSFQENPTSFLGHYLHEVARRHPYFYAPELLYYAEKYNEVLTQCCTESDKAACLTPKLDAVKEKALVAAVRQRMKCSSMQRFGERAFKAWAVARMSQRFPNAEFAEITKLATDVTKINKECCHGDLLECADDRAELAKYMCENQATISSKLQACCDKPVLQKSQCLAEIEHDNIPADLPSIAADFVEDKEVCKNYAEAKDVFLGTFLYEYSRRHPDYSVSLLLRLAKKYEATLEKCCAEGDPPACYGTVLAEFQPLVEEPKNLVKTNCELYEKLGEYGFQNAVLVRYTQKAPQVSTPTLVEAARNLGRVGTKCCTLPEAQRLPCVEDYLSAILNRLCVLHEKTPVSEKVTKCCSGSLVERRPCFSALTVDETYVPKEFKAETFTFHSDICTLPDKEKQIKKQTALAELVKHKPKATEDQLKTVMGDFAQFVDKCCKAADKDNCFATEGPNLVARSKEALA

Sequence of mouse albumin (mouse), P07724 (P07724 25-608 limits assumed): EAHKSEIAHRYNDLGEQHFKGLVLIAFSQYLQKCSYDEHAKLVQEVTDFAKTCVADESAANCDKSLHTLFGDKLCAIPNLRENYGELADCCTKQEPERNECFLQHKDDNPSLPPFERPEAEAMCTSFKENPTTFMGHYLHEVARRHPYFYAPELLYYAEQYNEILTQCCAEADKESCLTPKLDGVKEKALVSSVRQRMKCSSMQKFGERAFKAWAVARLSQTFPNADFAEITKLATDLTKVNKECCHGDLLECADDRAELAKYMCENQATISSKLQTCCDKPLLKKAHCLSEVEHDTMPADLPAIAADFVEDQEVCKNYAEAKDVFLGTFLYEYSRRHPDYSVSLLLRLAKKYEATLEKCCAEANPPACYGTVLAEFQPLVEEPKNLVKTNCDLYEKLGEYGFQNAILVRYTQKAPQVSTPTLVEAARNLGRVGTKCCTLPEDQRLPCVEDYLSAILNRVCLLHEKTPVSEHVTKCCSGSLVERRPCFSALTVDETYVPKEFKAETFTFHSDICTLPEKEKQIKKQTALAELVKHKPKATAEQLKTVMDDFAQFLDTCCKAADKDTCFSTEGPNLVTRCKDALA

An IC50 [1] of 4 nM, an IC50 [2] of 86 nM and an IC50 [3] of 77 nM were found for RLMEDICLPRWGCLWEDD (modifications not checked) [SA10] in this work.

An IC50 [1] of 188 nM, an IC50 [2] of 3200 nM and an IC50 [3] of 2480 nM were found for RLMEDICLARWGCLWEDD (modifications not checked) [SA13] in this work.
